From the nanobody polyreactivity screen of Harvey et al. (2022)

Assay: yeast display, Sf9 membrane polyspecificity reagent, FACS + sequencing; frameworks hold sequencing errors
Summary of the method: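 Polyreactivity labels are assigned by the sorting gate from which each nanobody was recovered. The gates were low and high (top ~1%), set on anti-HA fluorescence for expression and streptavidin fluorescence for reagent binding. Before sorting, galactose-induced (36–48 hours) yeast display cells were stained for 1 hour at 4 °C with 10% biotinylated, detergent-solubilized Sf9 membrane reagent.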

Row | Sequence | polyreactivity (PSR sort gate)
1 | QVQLVESGGGLLQAGGSLRLSCAASGSIFQYNAMGWYRQAPGKERELVAAINGGGSTYYADSVKGRFTISRDNAKNTVYLQMNSLKPEDTAVYYCAADGGAYSYRGPGKFGIEDSWGQGTQVTVSS | low polyreactivity
2 | QVQLVESGGGLLQAGGSLRLSCAASGSIFRRNAMGWYRQAPGTERELVACISGGGSTYYADSVKGRFTKSRDNAKNNVYLQLNSLNPEDTAVYYCATDKHYRWAVFDYWGQGTQVTVSS | low polyreactivity
3 | QVQLVESGGGLLQAGGSLRLSCAASGSIFSRYAMGWYRQAPGKERELVAAISKSGTRTYYADSVKGRFTISRDNAKNTVYLQMNSLKPEDTAVYYCNADSEISWYYPYEYWGQGTQVTVSS | high polyreactivity
4 | QVQLVESGGGLLQAGGSLRLSCAASGSTFPPYAMGWYRQAPGKERELVAAIDWSDGTTYYADSVKGRFTISRDNAKNTVYLQMNSLKPEDTAVYYCAASLSQSEYDYWGQGTQVTVSS | low polyreactivity
5 | QVQLVESGGGLLQAGGSLRLSCAASGSTFRIYAMGWYRQAPGKERELVAAIRRRGASTYYADSVKGRFTISRDNAKNTVYLQMNSLKQEDTAVYYCAASYLWDRVPGRGIHDYWGQGTQVTVSS | high polyreactivity
6 | QVQLVESGGGLLQAGGSLRLSCAASGSTISRYAMGWYRQAPGKERELVAAIRRNGDGTYYADSVKGRFTISRDNAKNTVYVQMNSLKPEDTAVYYCAARRFIPRFNYWGQGTQVTVSS | high polyreactivity
7 | QVQLVESGGGLLQAGGSLRLSCAASGTIFKYYAMGWYRQAPGKERELVAAISRSGSNTYYADSVKGRFRISRDNAKNTVYLQMNTLKPEDTAVYYFAARARRYIYTFDSWGQGTQVTVSS | high polyreactivity
8 | QVQLVESGGGLLQAGGSLRLSCAASRSTFFWYAMGWYRQAPGKERELVAANSKTGGSTYYADSVKGRFTISRDNAKNTVYLQMNSLKPEDTAVYYCARDYSWYYYGSQLFAHDYWGQGTQVTVSS | low polyreactivity
9 | QVQLVESGGGLLQAGGSLRLSCAASVRIFYGYAMGWYRPAPGKERELVAAIDSVGDTYYADSVKGRFTISRDNAKNTVYLQMNSLNPEDTAVYYCAADRTGGIVLSPTDEMDYWGQGTQVTVSS | low polyreactivity
10 | QVQLVESGGGLLQAGGSLRLSCAASVRIFYGYAMGWYRQAPGKERELVAAIDSVGDKYYADSVKGRFTISRDNAKNTVYLQMNSLNPEDTAVYSCAADRTGRIVLSPTDEMDYWGQGTQVSVSS | low polyreactivity
11 | QVQLVESGGGLLQAGGSLRLSCADSGSTFLYKAMGCYIQAPGKEREFVAAISGSGGTTYYADSVKGRFTISRDNAKNTVYLQMNSLKPEDTAVYYCAVSQSWYWYYASDYWGQGTQVTVSS | low polyreactivity
12 | QVQLVESGGGLLQAGGSLRLSCASSGRTFLVNAMGWYRQAPGKERELVAVITRVGSTNYADSVKGRFTISRDNAKNTVYLQMYSLKPEDTAVYYCAKQFSPYRSYGPVVRYDYWGQGTQLTVSS | low polyreactivity
13 | QVQLVESGGGLLQAGGSLRLSCDASGRIFGPNARGWYRQAPGKERELVDSISYSGGYTYYADSVKGRFTISRDNAKITFYLQMLSLIPVDTAVYYCAKGGYWSGYNYWGHGTQVTVSS | low polyreactivity
14 | QVQLVESGGGLLQAGGSLRLSSAASGFIFTKYNMGWYRQAPGKERELVDAIDTGGNTYADSVKGRFTISRDNAKNTVYLQMNSLKPEDTAVYYCSVDGGEFSSYGYWGQGTQVTVSS | low polyreactivity
15 | QVQLVESGGGLLQAGGSLRLSSAASGGTFPKYTKGWYRPAPGKEWELVAAITSRGGTYYADSVKGRFTISRDNAKNSVYLQMNSLKPEDTAVYYCAAEYSYSSYLWYDYWGQGTQVTVSS | high polyreactivity
16 | QVQLVESGGGLLQAGGSLRLSSAASGRTFPRYAMGWYRQAPGKERELVAAISVRAGITYYADSVKGRFTISRDNAKNTVYLQMNSLKPEDTAVYYCAKDHWTTSYDEGDYWGQGTQVTVSS | low polyreactivity

Row | Sequence | polyreactivity (PSR sort gate)
17 | QVQLVESGGGLLQAGGSLSLSCAASGGTFRYYTMGWYRQAPGKERELVASISGGGRTYYADSVKGRFTISRDNAKNTVYLQMNSLKPEDTAVYYCATYTRTFGYWGYGYWGQGTQVTVSS | high polyreactivity
18 | QVQLVESGGGLLQAGGSLSLSCAASGLILANYAMGWYRQAPGKERELVAAISSSGGSTYYADSVKGRFTISRDNAKNTVYLQMNSLKPEDTAVYYCAAYPLYRRRWTGDYWGQGTQVTVSS | high polyreactivity
19 | QVQLVESGGGLLQAGGSLSLSCAASGSIFVTNAMGWYRQAPGKERELVAAISVSGGSTYYADSVKGRFTISRDNAKYTVYLQMNSLKPEDTAVYYCNTVRSPPGHDYWGQGTQVTLSS | low polyreactivity
20 | QVQLVESGGGLLQAGGTLRLSCAASGFIFGRYAMGWYRQAPGKERELVADISWNGGSTYYADYVKGRFTISRDNAKNTVYLQMNSLKPEDTAVYYCAADYYWASFKYPYLRPYDYWGQGTQVTVSS | high polyreactivity
21 | QVQLVESGGGLLQAGVSLRLSCAASGFIFSYNTMGWYRQPPGKEREFVAAITYSGGSTYYADSVKWRFTSSRHNAKNSVYLQMNTLKPEDTAVYYCAAPYPRGYFFGDSPKGYGGGYWGQGTQVTVSS | high polyreactivity
22 | QVQLVESGGGLVEAGGRLSLSCAASGSIFHRNAMGGFRQAPGTERELVAAITYSGGGTYYADSVKGRFTISRDNAKNTVYLQMNSLKPEDTAVYYCAADYKSKYSRYIYDYWGQGPQVTVSS | low polyreactivity
23 | QVQLVESGGGLVEAGGSLRLICAASGSTFGWYAMGWSRQAPGKEREFVAAISWSGTSTYYADSVKGRFTISRDNAKNTVYLQMNSLKPEDTAVYYCNARSKRANRSLGLGYWGQGTQVTVSS | low polyreactivity
24 | QVQLVESGGGLVEAGGSLRLSCAASGFTFGYYAMGWYRPAPGKERELVAAITNGGRTNYAYSVKGRFTISRDNAKNTVYLQMNSLKPEDTAVYFCATDHYWSREVYWGQGTQVTVSS | low polyreactivity
25 | QVQLVESGGGLVEAGGSLRLSCAASGFTFRQYAMGWYRQAPGKEWELVAAISSGGSTYYADSVKGRFTISRDNAKNTDYVQMNSLKPEDTAVYYCAATHWAYSRVPYDYWGQGTQVTVSS | high polyreactivity
26 | QVQLVESGGGLVEAGGSLRLSCAASGIIFVYNAMGWSRKAPGKERELVADINWRGDGTYYSDSVKGRFTISPDNAKNTVYLQMNSLKPEDTAVYYCNAVRFRPNSHYRPVGYEYWGQGTQVTESS | low polyreactivity
27 | QVQLVESGGGLVEAGGSLRLSCAASGLTFEVYAMGWYRHAPGKERELVAVITSVGSTNYADSVKGRFTISRDNAKNTVYLQMNSLKPEDTAVYYCAADKWTVRRFNPYTYYRYDYWGQGTQVTVSS | low polyreactivity
28 | QVQLVESGGGLVEAGGSLRLSCAASGRIFVHNAMGWYRHAPGKERELVAVITYSGGRTYYADSVKGRFTISRDNAKNTVYLQMNSLKPEDTAVYYCAVRAYKVSRYYYWGQGTLVTVSS | low polyreactivity
29 | QVQLVESGGGLVEAGGSLRLSCAASGRTFGTYPMGWYRQAPGKERELVAAISSRGGTTYYADSVKGRFTISRDNAKNTVYLQMNSLKPEDTEVYYCARASWSITTVLSTMDYWGQGTQVTVSS | high polyreactivity
30 | QVQLVESGGGLVEAGGSLRLTCAASGIIFYQYAMGWYRQAPGKERELVAAISSRGGSTYYADSVKGRFTISRDNAKNTVYLQMNSLKPEDTAVYYCAAGSTRSTDGYWGQGTQVTVSS | high polyreactivity
31 | QVQLVESGGGLVHAGGILRLSCAASGRIFDYNVMGWYRQAPGKERELVADINGSGGGTNYADSVKGRFTISRDNAKNTVYLQMNSLKPEDTAVYYCAAEWYSYGARSSYGGSRNDYWGHGTQVTVSS | low polyreactivity
